In one test the test system is DSS treated mice. In words: DSS model of inflammatory bowel disease: 4KDa-FITC dextran translocation across the epithelial barrier. The settings on record: 50 nmoles/kg i.p. b.i.d., 2.5% DSS 6 days; for 4KDa-FITC dextran in serum compared to DSS mice treated with vehicle: day 6. The test is classed as in vivo, C57BL/6 mice. How it is done: Specifically, the mice in Example 1E were treated with dextran sodium sulfate (DSS), a chemical known to induce intestinal epithelial damage and thereby reduce intestinal barrier integrity and function. DSS mice are well-accepted models of colitis. In Example 1E, mice were treated with SG-15 protein approximately concurrent with (6 hours prior to) administration of DSS. The mice were then assessed for effects of SG-15 on clinically relevant markers of improved health. Eight-week old C57BL/6 mice were housed 5 animals were cage and given food and water ad libitum for 7 days. Following the 7-day acclimation period, treatments were initiated concurrently with addition of 2.5% DSS to the drinking water. […] The mice were treated with 2.5% dextran sodium sulfate (DSS) in their drinking water for 6 days. Treatments were continued with SG-15 or […]-GLP2 twice a day (b.i.d.) in the morning and evening (every 8 and 16 hr) with i.p. injections at 50 nmoles/kg. Fresh 2.5% DSS drinking water was prepared every 2 days. On day six, mice were fasted for four hours and then orally gavaged with 600 mg/kg 4 KDa dextran labeled with fluorescein isothiocyanate (FITC) [4KDa-FITC]. One hour after the 4KDa-FITC gavage mice were euthanized, blood was collected and FITC signal was measured in serum. […] Results are shown in FIG. 4, and are presented as mean±SEM. The graph in FIG. 4 represents data pooled from 2 individual experiments (n=20).

The next test relates to IL-10. In words: IL-10 production by monocytes in co-culture TEER assay (Luminex). The conditions noted are these: pre-incubated 6 hours prior to HK E. coli; basolateral supernatant. The format is cell-based, human. How it is done: Production of the cytokines TNF-α, IL-23, and IL-10 by monocytes was measured in the tissue culture supernatant from the basolateral chamber of the co-culture TEER assay performed in Example 1B. Following TEER readings, the supernatants were centrifuged at 10,000 g for 5 minutes at 4° C. to remove cell debris. Luminex analysis was performed according to the manufacturer's instructions (Magpix instrument and xPonent software version 4.2; Luminex Corporation (Austin, TX)). Luminex analysis was performed to determine the […] concentration of TNF-α and IL-23 produced by monocytes. Luminex analysis utilizes a bead-based system for quantification of multiple cytokines from a single sample. Like an ELISA, Luminex beads are coated with a capture antibody, and incubation with samples allows the target to bind to the capture antibody. Beads are washed and incubated with a fluorescently labeled detection antibody for quantification of bound target. Cytometric analysis is used to differentiate bead populations, which are loaded with differential fluorescent dyes, and to quantify cytokine levels by measuring detection antibody signal. TNF-α, IL-23, and IL-10 production in untreated cells and cells pre-incubated with SG-15 for 6 hours prior to HK E. coli treatment was normalized to pg/ml concentrations elicited by HK E. coli only, which was set to 1.0. […] The graphs in FIGS. 2A, 2B and 2C each represent data pooled from an individual experiment (n=3).

B1: SG-15: 400 amino acid protein (SEQ ID NO:1) encoded by the genome of Eubacterium eligens (protein, listed as Eubacterium eligens)
chain: EYTEIRTASELVEAAKSASGNYKLMTDIDMTGVEWTPWDFSGTFDGNGHSILNLSVKTVSKKTMKTYDGNRKEYKTYGAGFFGVLTGAKVTGLDIYGARIEITTTEPCFAAPIAGLADDSDISDCIIKDTYVSLTDSAKMWGTGGIAGFGSGNLDNITTDVTLVCVDTDAAVRDEQFMGGAYAAGFLNIRNCSITIDGYDSDHGYVHDGGLVGMYMVYPLELSKTYQGEVLNNKVKGMITFFEDNTDRRAYCQANMGEVMNWTYAYSGFTSDFKRNETYDYSVTLLPEMCSNPSYTDVVTEATASDFGYTTHTCSTCGYTYSDTYTIHEHKVDSYSVVKEAASTDKKDGIEAGTCSLCNQTVYREYAANVVTDDNTQATDNKASGTAVKKGMKESTAVFA
Turning to B1, in the test with DSS treated mice, the “4KDa-FITC dextran in serum compared to DSS mice treated with vehicle” value was “significant reduction in 4KDa-FITC dextran”. In addition, the “IL-10 production normalized to HK E. coli only (set to 1.0)” value (shortened to “IL-10 production normalized”) in the test with IL-10 was 0.66.

B2: SG-17: 327 amino acid protein (SEQ ID NO:13) encoded by the genome of Eubacterium eligens (protein, listed as Eubacterium eligens)
chain: CNSKIDVKYDYNVEDYVQLGQYENISVQVDKTSIENELIESKIKQDVEDNTTYTEVDRGAIASDQILVTYTATSSGASLSGLTNTDGKTMILGTDTLGLELDELDQALYGMTPGQTKILIVDIPEDYSSDLYKGTRVVFELTMQTVAQANVPMITNAYVKEAFGYDTVEEYRQSIKESLETDINSKVENKIQEDVLSSLQDTFKISSYPDSLMEETRSRLETSIGFYADFSNLSKDEYCQKQYGLSFDDFVKKSVVQQLIMEAIVKDRNMTMREYDYKGSLDDFAADNGYSNADTFVEKFGKDKIVKAMLVQKAQDYVIEHANISYK
For the molecule B2, the “4KDa-FITC dextran in serum compared to DSS mice treated with vehicle” value in the test with DSS treated mice is “not altered”. In addition, in the test on IL-10, the “IL-10 production normalized” value was found to be 0.51.

B3: SG-18: 267 amino acid protein (SEQ ID NO:19) encoded by the genome of Clostridium bartlettii sp. nov. (protein, listed as Clostridium bartlettii)
chain: EVDSSKEQATSKDEKQVVVATSVAITEILDRLGVEVSGVPQTSYELPESAKGATEIGSPMNPDMEIIKSLNPTDVICVDTLGSDFEKQFEENNINADFYNLSNVDGLKETIAALGEKFNKQDKANEILDEIKEVENKVNSNKKSDDKILVLFGAPGSVMVATDKSYIGNLVELAGGNNIFSNATSSFTQINLEEIIKLNPDKILVMTHAVPEAAKKSVEEELSKDLWKNVNAVKNNDITYLENGYFGMSANLQIVEAVEKLGDILYE
Turning to B3, in the test on DSS treated mice, the “4KDa-FITC dextran translocation compared to positive control Gly2-GLP2” value is recorded as “even lower than the positive control” and the “4KDa-FITC dextran in serum compared to DSS mice treated with vehicle” value is reported as “significant reduction in 4KDa-FITC dextran”. In the test on IL-10, the “IL-10 production normalized” value is on record as 0.93.

B4: SG-16: 119 amino acid protein (SEQ ID NO:9) encoded by the genome of Eubacterium eligens (protein, listed as Eubacterium eligens)
chain: MTGCSGSKEPDNKTSVDYTVVENADLPEELKKLIESKKDKVMRLTYTTKDYTYVVAGYGTRETSGYSIKVNDVYTGDNALYIDLNLIGPAAGEAVNEVETYPVIVLKMERREESVVFKM
For the molecule B4, in the test on DSS treated mice, the “4KDa-FITC dextran in serum compared to DSS mice treated with vehicle” value is recorded as “significant reduction in 4KDa-FITC dextran”. Besides, in the test with IL-10, the “IL-10 production normalized” value came out at 1.23.

Values taken from patent US12168677B2, “Proteins for the treatment of epithelial barrier function disorders” (Genevive, Inc., priority 2017, dated 2024).
